Results from patent US20080267985A1.

Columns and labels:
[1] = target: IgE antibodies from sera of grass pollen allergy sufferers (human); test: cell-based or functional assay
[2] = target: IgE antibodies from sera of grass pollen allergy sufferers (human); test: EAST inhibition test, four individual sera, plate-bound nPhl p 1, inhibitor up to 5 µg/ml

allergenic efficacy from A50 values, basophil activation test (CD203c), against reference nPhl p 1 [1] [fold]	percent of the maximum inhibitory action of nPhl p 1 [2] [%]	Binder
100 to 1000		Phl p 1 NoCys Δ213-220 (histidine fusion protein) (protein, not shown: small tags and cut ends) IPKVPPGPNITATYGDKWLDAKSTWYGKPTAAGPKDNGGASGYKDVDKPPFSGMTGSGNTPIFKSGRGSGSSFEIKSTKPEASSGEPVVVHITDDNEEPIAAYHFDLSGIAFGSMAKKGDEQKLRSAGEVEIQFRRVKSKYPEGTKVTFHVEKGSNPNYLALLVKFVAGDGDVVAVDIKEKGKDKWIALKESWGAIWRIDTPEVLKGPFTVRGEAKDVIPEGWKADTAYESK
> 1000		Phl p 1 NoCys Δ1-6, 115-119, 213-220 (histidine fusion protein) (protein, not shown: small tags and cut ends) GPNITATYGDKWLDAKSTWYGKPTAAGPKDNGGASGYKDVDKPPFSGMTGSGNTPIFKSGRGSGSSFEIKSTKPEASSGEPVVVHITDDNEEPIAAYHFDLSGIAFGSDEQKLRSAGEVEIQFRRVKSKYPEGTKVTFHVEKGSNPNYLALLVKFVAGDGDVVAVDIKEKGKDKWIALKESWGAIWRIDTPEVLKGPFTVRGEAKDVIPEGWKADTAYESK
	20 to 50	Phl p 1 NoCys (histidine fusion protein) (protein, not shown: small tags and cut ends) IPKVPPGPNITATYGDKWLDAKSTWYGKPTAAGPKDNGGASGYKDVDKPPFSGMTGSGNTPIFKSGRGSGSSFEIKSTKPEASSGEPVVVHITDDNEEPIAAYHFDLSGIAFGSMAKKGDEQKLRSAGEVEIQFRRVKSKYPEGTKVTFHVEKGSNPNYLALLVKFVAGDGDVVAVDIKEKGKDKWIALKESWGAIWRIDTPEVLKGPFTVRYTTEGGTKGEAKDVIPEGWKADTAYESK
